Measured values published in patent US20180086841A1 (Merck Sharp & Dohme, published 2018).

Tests used:
H36A = target: T1, H36A; assay: flow cytometry on CHO-K1 transfectants, left sub-column, cell hatched (loss of binding)
T1 construct: also called hCD27 H36A
T1 receptor chain: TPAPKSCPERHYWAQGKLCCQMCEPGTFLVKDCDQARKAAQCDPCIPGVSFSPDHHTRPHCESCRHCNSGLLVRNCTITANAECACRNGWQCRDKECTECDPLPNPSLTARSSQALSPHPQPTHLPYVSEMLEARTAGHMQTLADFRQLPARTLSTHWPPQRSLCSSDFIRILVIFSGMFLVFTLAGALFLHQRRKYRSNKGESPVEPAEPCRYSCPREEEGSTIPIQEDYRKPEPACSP
Experimental: (§1) The ability of several anti-hCD27 antibodies to bind to a series of hCD27 alanine mutants was determined using CHO-K1 cells, transiently transfected pCI-neo empty vector, pCI-neo.hCD27 and several pCI-neo.CD27Ala mutant constructs.
(§2) Detached cells were transferred to 96 wells round-bottomed well plates at approximately 1.2×10⁵ cells/well. After spinning down the cells, discarding the supernatants and re-suspending the cells in the residual volume, the primary antibodies were added and incubated for 30 minutes at 4° C. Cells were washed three times with DPBS/BSA 1%, followed by centrifugation, discarding of the supernatants and re-suspension in the residual volume. […] After washing once, antibody binding was detected using the HTS plate reader (FACS Canto II) and FlowJo software for data analysis. Debris, dead cells and doublets were excluded from the analysis. Binding was expressed as the geometric mean of the FITC signal, relative to antibody binding to hCD27, which was set at 100%.

R37A = target: T2, R37A; assay: as above
T2 construct: also called hCD27 R37A
T2 receptor chain: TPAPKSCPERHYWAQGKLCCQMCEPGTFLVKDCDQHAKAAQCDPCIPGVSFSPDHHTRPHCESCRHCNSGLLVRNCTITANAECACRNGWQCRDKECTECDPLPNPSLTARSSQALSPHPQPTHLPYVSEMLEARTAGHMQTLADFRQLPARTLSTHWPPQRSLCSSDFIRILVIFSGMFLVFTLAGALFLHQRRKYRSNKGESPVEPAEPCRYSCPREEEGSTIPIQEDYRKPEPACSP
Experimental: as §1, §2

K38A = target: T3, K38A; assay: as above
T3 construct: also called hCD27 K38A
T3 receptor chain: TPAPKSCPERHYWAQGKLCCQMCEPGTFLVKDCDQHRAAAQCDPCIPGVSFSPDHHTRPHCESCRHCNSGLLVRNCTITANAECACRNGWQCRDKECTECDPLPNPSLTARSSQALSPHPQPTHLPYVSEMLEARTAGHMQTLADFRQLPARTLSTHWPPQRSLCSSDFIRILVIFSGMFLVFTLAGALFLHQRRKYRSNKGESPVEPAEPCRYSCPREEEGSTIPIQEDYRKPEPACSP
Experimental: as §1, §2

N88A = target: T4, N88A; assay: flow cytometry on CHO-K1 transfectants, right sub-column
T4 construct: also called hCD27 N88A
T4 receptor chain: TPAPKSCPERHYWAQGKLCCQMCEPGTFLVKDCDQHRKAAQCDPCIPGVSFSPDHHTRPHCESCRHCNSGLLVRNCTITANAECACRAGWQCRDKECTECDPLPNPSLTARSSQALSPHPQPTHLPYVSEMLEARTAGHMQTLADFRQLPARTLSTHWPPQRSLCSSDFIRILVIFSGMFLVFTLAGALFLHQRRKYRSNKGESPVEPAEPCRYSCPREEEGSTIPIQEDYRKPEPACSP
Experimental: (§3) The hCD27 variants that were tested are listed. Amino acids correspond to the UniProt P26842-1 sequence. Amino acids 1-20 constitute the signal peptide. Binding is expressed as the geometric mean of the FITC signal, relative to antibody binding to hCD27, which was set at 100%.
as §1, §2

D32A = target: T5, D32A; assay: as above
T5 construct: also called hCD27 D32A
T5 receptor chain: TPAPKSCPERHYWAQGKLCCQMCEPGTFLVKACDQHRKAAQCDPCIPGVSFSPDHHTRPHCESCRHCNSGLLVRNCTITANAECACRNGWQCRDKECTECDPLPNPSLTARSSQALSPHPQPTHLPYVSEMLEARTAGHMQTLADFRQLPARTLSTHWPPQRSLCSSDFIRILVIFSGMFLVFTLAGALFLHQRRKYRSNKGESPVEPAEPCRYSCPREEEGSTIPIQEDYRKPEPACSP
Experimental: as §3, §1, §2

D43A = target: T6, D43A; assay: as above
T6 construct: also called hCD27 D43A
T6 receptor chain: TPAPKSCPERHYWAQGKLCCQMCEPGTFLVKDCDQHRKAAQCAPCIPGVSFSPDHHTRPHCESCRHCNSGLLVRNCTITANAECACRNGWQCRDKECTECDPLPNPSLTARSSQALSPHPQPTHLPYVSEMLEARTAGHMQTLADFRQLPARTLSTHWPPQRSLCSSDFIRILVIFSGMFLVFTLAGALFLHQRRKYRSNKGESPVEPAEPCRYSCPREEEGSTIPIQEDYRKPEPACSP
Experimental: as §3, §1, §2

G89A = target: T7, G89A; assay: as above
T7 construct: also called hCD27 G89A
T7 receptor chain: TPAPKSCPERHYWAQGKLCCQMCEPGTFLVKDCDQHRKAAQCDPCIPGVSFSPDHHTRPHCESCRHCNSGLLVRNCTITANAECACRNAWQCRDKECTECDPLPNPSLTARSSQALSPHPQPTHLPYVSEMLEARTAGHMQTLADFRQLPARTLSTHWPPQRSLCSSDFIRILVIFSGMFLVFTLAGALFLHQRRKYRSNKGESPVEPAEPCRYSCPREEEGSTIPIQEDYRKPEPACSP
Experimental: as §3, §1, §2

P44A = target: T8, P44A; assay: as above
T8 construct: also called hCD27 P44A
T8 receptor chain: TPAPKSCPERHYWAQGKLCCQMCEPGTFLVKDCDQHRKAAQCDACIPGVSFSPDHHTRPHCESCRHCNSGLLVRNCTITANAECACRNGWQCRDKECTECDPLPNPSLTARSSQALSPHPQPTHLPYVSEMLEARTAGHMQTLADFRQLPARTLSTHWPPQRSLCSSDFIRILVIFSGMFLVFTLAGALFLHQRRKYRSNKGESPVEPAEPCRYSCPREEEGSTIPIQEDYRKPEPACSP
Experimental: as §3, §1, §2

K31A = target: T9, K31A; assay: as above
T9 construct: also called hCD27 K31A
T9 receptor chain: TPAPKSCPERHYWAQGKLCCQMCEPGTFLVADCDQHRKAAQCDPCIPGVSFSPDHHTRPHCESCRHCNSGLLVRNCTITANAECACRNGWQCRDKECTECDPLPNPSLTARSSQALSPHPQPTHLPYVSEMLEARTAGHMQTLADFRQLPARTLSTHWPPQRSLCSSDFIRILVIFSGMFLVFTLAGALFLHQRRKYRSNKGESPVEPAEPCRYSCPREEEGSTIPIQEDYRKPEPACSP
Experimental: as §3, §1, §2

human CD27 = target: T10, human CD27 (human, UniProt P26842 21-260); assay: flow cytometry MFI, CD4+ T cells of human PBMC, N=2 donors
T10 construct: also called hCD27; HsCD27
Experimental: Labeled cells were washed by re-suspending them in 150 ul of staining buffer (SB) followed by centrifugation at 300 g for 5 minutes. Cells were then resuspended in 100 ul of SB containing primary anti-CD27 antibodies at various concentrations, incubated in the dark at 4° C. for 30 minutes, followed by washing and centrifugation steps as previously described. […] Cells were incubated for 30 minutes at 4° C. in the dark, followed by washing and centrifugation steps. Next, cells were stained with a cocktail of phenotypic antibodies for surface markers (CD3, CD4, CD8, CD11b) and incubated for 30 minutes at 4° C. in the dark, followed by washing and centrifugation steps. […] Samples were acquired in a LSR-Fortessa flow cytometer (BD Biosciences) using the high throughput sampler and data analyzed by FlowJo software (Tree Star Inc).

B1: hCD27.131A (mouse parental 131A) (antibody, mouse IgG1, V domains shown)
VH: QIQLVQSGPELKKPGETVKISCKASGYTFTNYGMNWVKQAPGKGLKWMGWINTNTGEPTYAEEFKGRFAFSLETSATTAYLQINNLKNEDTATYFCAREGDAMDYWGQGTSVTVSS
VL: QIVLTQSPAIMSASPGEKVTMTCSASSSVSYMHWYQQKSGTSPKRWIYDTSKLASGVPARFSGSGSGTSYSLTISSMEAEDAATYYCQQWNSYPFTFGSGTKLEIK
notes: Mouse IgG1 antibody; also called mouse hCD27.131A
binding, WT hCD27 = 100 (GM FITC) (H36A): 54.1%
binding, WT hCD27 = 100 (GM FITC) (R37A): 50.3%
binding, WT hCD27 = 100 (GM FITC) (K38A): 48.2%
binding, WT hCD27 = 100 (GM FITC) (N88A): 124%
binding, WT hCD27 = 100 (GM FITC) (D32A): 62.1%
binding, WT hCD27 = 100 (GM FITC) (D43A): 96.2%
binding, WT hCD27 = 100 (GM FITC) (G89A): 82.9%
binding, WT hCD27 = 100 (GM FITC) (P44A): 91%
binding, WT hCD27 = 100 (GM FITC) (K31A): 134%
EC50 (human CD27): 0.0645 nM
